B1: MFF (parent)
chain: YTEGISQRMRVPEKLKVAPPNADL

Variants of: B1
Test: protein stability index of a GFP-peptide fusion (GPS, HEK-293T) (PSI 1-6); higher = more stable
Details: c terminus: a fixed tail appended
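Also: lentivirally expressed fusions sorted by FACS into six bins by GFP to DsRed ratio, PSI derived from sequencing read proportions per bin multiplied by bin number.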

Variant	protein stability index
YTMGISQRMRVPEKLKVAPPNADL [E3M]	2.48
YTEGSSQRMRVPEKLKVAPPNADL [I5S]	4.16
YTEGQSQRMRVPEKLKVAPPNADL [I5Q]	4.44
YTEGFSQRMRVPEKLKVAPPNADL [I5F]	2.13
YTEGPSQRMRVPEKLKVAPPNADL [I5P]	4.33
YTEGISQRMRVPEKLKVAPPNGDL [A22G]	2.96
YTEGISQRMRVPEKLKVAPPNRDL [A22R]	2.77
YTEGISQRMRVPEKLKVAPPNPDL [A22P]	2.9
YTEGISQRMRVPEKLKVAPPNFDL [A22F]	2.83
YTEGISQRMRVPEKLKVAPPNQDL [A22Q]	2.81
YTEGISQRMRVPEKLKVAPPNKDL [A22K]	3.28
YTEGISQRMRVPEKLKVAPPNIDL [A22I]	2.45
YTEGISQRMRVPEKLKVAPPNLDL [A22L]	2.39
YTEGISQRMRVPEKLKVAPPNEDL [A22E]	3.33
YTEGISQRMRVPFKLKVAPPNADL [E13F]	2.35
YTEGISQRMRVPSKLKVAPPNADL [E13S]	3.18
YTEGISQRMRVPGKLKVAPPNADL [E13G]	2.18
YTEGISQRMRVPIKLKVAPPNADL [E13I]	2.49
YTEGISQRMRVPAKLKVAPPNADL [E13A]	2.95
YTEGISQRMRVPMKLKVAPPNADL [E13M]	2.64
YTEGISQRMRVPKKLKVAPPNADL [E13K]	2.2
YTEGISQRMRVPPKLKVAPPNADL [E13P]	2.65
YTEGISQRMRVPHKLKVAPPNADL [E13H]	2.98
YTEGISQRMRVPDKLKVAPPNADL [E13D]	2.86

Variant	protein stability index
YTEGISQRMRCPEKLKVAPPNADL [V11C]	2.8
YTEGISQRMRNPEKLKVAPPNADL [V11N]	2.91
YTEGISQRMRLPEKLKVAPPNADL [V11L]	2.59
YTEGISQRMRDPEKLKVAPPNADL [V11D]	2.75
YTEGISQRMRFPEKLKVAPPNADL [V11F]	2.7
YTEGISQRMRPPEKLKVAPPNADL [V11P]	2.78
YTEGISQRMRVPEKLKVAPPVADL [N21V]	3.09
YTEGISQRMRVPEKLKVAPPIADL [N21I]	2.34
YTEGISQRMRVPEKLKVAPPLADL [N21L]	2.09
YTEGISQRMRVPEKLKVAPPDADL [N21D]	3.1
YTEGISQRMRVPEKLKVAPPMADL [N21M]	2.67
YTEGISQRMRVPEKLKVAPPAADL [N21A]	3.21
YTEGISQRMRVPEKLKVAPPGADL [N21G]	2.72
YTEGISQRMRVPEKLKVAPPQADL [N21Q]	2.9
YTEGISQRMRVPEKLKVAPPWADL [N21W]	2
YTEGISQRMRVPEKLKVAPPRADL [N21R]	3.19
YTEGISQRMRVPEKLKVAPPCADL [N21C]	2.33
YTEGISQRMRVPEKLKVAPPFADL [N21F]	2.25
YTEGISQRMRVPEKLKVAPPKADL [N21K]	2.99
YTEGISQRMRVPEKLFVAPPNADL [K16F]	2.8
YTEGISQRMRVPEKLAVAPPNADL [K16A]	2.68
YTEGISQRMRVPEKLMVAPPNADL [K16M]	2.77
YTEGISQRMRVPEKLTVAPPNADL [K16T]	3.16

Source: the supplement of paper PMC10567573
